# A protein production outcome set (Wang et al. 2014)
# Test: label from the status in PepcDB records
row,Sequence,protein production
1,MFNKLVFKNLKLKKLSTSLVVVASLLVAQAPFANYAEAAGAEKVEKKKKRPTQLVGPRVGKKVQKAFEAYSADDIKGALVILLDIEASKPYDKAYVSRMVAVMYATLGDNDQKTIEYLKKALEPDILNEVDQSESLKLLGDMQMQTKDYKGALKSFYAWMDFSGKDDGPTYVKIANAYYSLKQLDKVIEPADKAIAAFGDKPNQNPYILKITSYYERKMYKEAVKVLETVIQVFPENKQWWTQLPMFYLLIEDYDKAVQTLDLAYKLGHLDKESQIKTLASLYSQTEAPYKAAQLLEKYIASGLVKRDDKNISTLANAWHSAQHIDKAASYYGELAKMTSDAKHYRKQGMLLKQDEQFSKAIVALNKAIELGVSNQGRIHMSIAESYFYLEKYKKAYAAIQKAMKDPSARKSAKGWKSFIVDTARRKNVTI,failed
2,MFNLYPPHRSLEGAAILGDNCSRIFNVSDTVVNTLHIVMQSHANPLGILHGGNMIRWLVDAGTLAASKVVVGYPLLAGIDFIYLGKPVGVGETIAVFAWSPYAGRSSVEVGLAAYSLGRPGGQGLERVSAAHMTFVNVKPHEGVLRPHPHGSCIEAVDREEERLLEASMKMREARVERLRGRELLRQTVYSLRESGTEPFEVESYRIVNPIDSVAYDVMHAGAMLYIVDELGAVAALRSSAGIVVTGFVGPADFVAPMRVGEVLRMWARTSYVGRSSVEVLIRSASGFMGGGEARLTSEAYLTYISLDSSGRPLEINAPRGWEPEEQALRRAEWRRRLIRSIDSGETALEPPRRFLEMLMRGRVG,failed
3,MFPQADEPERDTLPGQEEDPLPTGQEQPSITPIAGTEAQYIDIAEWYDSDSILYITDEGENSLVYIYNLLTGEKKSLFSSDDAVIKVTANSTHSQFAIQTVTQAGDAPVSIIDSQGELLMKLEDFGEDFSIFWSPYEEDKLIAVAYLPDWEQDLYLIDTSDKQVEMLDLDQSFVQWLDERTIVYLDWNGDSEGYYAPLYTFDLETEEVVLLHEEAIATLGFGDHVTLIIERPEQGAEVTTYQFWNGSEQLAEWSVPILRTYSEQWWIPFYDFDLNKRLFYAYKPNRTGDYFEYDGGFSFIAFDVDHGEETVLFESDEHVPFRLSPTGQRALFGPRLETVMDLPTGESNSLIELEHHHHHH,failed
4,MFPYFESVATASTEFHAIEPDPHMRRQAAEQANTQATPIHIESSPAEALPYYEDTFDVVITSMVFCTIPDIESAMSEITRVLKPGGELRFFEHVIDDGWRARLQSALAPLWKRLAGGCHLTRQTGTRLVADQSFDVVEIERLNLGITPIRPFVRGRLRKRSVSSTRLEHHHHHH,failed
5,MFQDNPLLAQLKQQIQEKLPKKEGTIKATERGFGFLESDDKKKSIFIPPAQMKKVMHGDKVVALIRTENEKEQAEPDQLIEQSITRFIGRIQMFKKRLQVMPDHPSLKNAIKAKTRKGVNPETLKEGDWVVAELTQHPLKGDQGFQCDITHKITDSDDKIAPWWVTLAQNDLPNSEPEGIEHWEIKDDADLVRVDMTATPFVTIDGESTKDMDDALYIKKLENGSFELTIAIADPTAYITPDDSMDKVARERGYTIYLPGRNIPMLPRDLSDELCSLIEGQERPALCCTVLVDANGNIQEDSINFFAATIKSHARLAYDHVSDFLETGSCDKWQPNDTIAQVVTELYEFAQVRTTWRETHAVIFPDRPDYRFELSEDNDVIAIHADMRRTANKLVEEAMVTANICAGKTLRAAFNMGVFNSHAGIKSDKLKDVVEIVNQLEGVDFTEEQIATLEGFSELRRLLGKQPTSYLDARIRKFQTYSETGNEPLPHYAMGLDIYATWTSPIRKYSDMINHRMLKAHILGKEPVQRPDDIVGEELAISRRFHRMAERNVSDWLYCRTLASEVEKETKYTAEIFDINRAGMRVRLIENGAAAFIPGSLIVDNKERIECNADQGIISIDKHETFKLGDQLHVVLAEVKEDTRNMVAKPLQAFPAPEPEEAPVVENEDATTNATTSADA,failed
6,MFQDVLVITVAVGRGGDGAVSFRREKFVPKGGPDGGDGGRGGSVYLRARGSVDSLSRLSKRTYKAEDGEHGRGSQQHGRGGEDLVIEVPRGTRVFDADTGELLADLTEEGQTVLVARGGAGGRGNMHFVSPTRQAPRFAEAGEEGEKRRLRLELMLIADVGLVGYPNAGKSSLLAAMTRAHPKIAPYPFTTLSPNLGVVEVSEEERFTLADIPGIIEGASEGKGLGLEFLRHIAGTRVLLYVLDAADDPFKTLKTLRKKVWAYDPGLLGRPSLVALNKVDLLEKEAVKALADALAREGLAVLPVSALTGAGLPALKEALHALVRSTPPPEMPKPVPRKEVQAGVEVVPVAEGVYEVRAPEVERYLARIKGDLMEAAGYLQEVFRRQGVEAALRAKGVRAGDLVRIGGLEFEYIPEV,not failed
7,MFQPVTQKRLTNVSVVRMRKGGKRFEIACYPNMVMAYREGHVRDLDEVIQVEDVFENVSKGKLAANADLERCFGTRDRHAVLLQILLHGDLQVSDRERQYQSTRKLHEIASVVAAKTISRETKKPLPVGLIEKALREIHFAVQPNRPAKAQALEVIPLLRAQSGLDLERARLRLRIHVPSQRDAKAVKARLEPLQQGETDGTHSSSRSDSVRMKDGSAAVESESEEWLPGGALLWTVQADPGAFREIEEIVQRETNQQGIVEVASLRVLDDEDESILS,failed
8,MFRFADPNFLYLLILLPFLVALYLYSNYHRRQNIRKYGDPALLKGLMPTISKYRPDIKFWLTFAALTLVILMLARPQFGSKMETVKRSGVEAVIALDISNSMLAEDVTPSRLDKSKKLISRLVDTFNNDKVGLIVFAGDAFTQLPITSDYVSAKMFLETINPSLITTQGTDIGAAIRLAMKSFTPQEGVGRAIIVITDGENHEGGAVEAAQEAAEKGMQVFVLGVGSPDGSPIPAEDGSNNFRRDKDGNVIVTRLNEQMCQEIAKAGNGMYIRVDNTNSAEKVLNNEIAKLSKADVESQVYTEFDEQFQALAWLVLILLVVEMLILERKNPLFKNVRLFK,failed
9,MFRQSKRRIASRKNFSSYDDIVKSELDVGNTNAANQIILSSSSSEEEKKLYARLYESKLSFYDLPPQGEITLEQFEIWAIDRLKILLEIESCLSRNKSIKEIETIIKPQFQKLLPFNTESLEDRKKDYYSHFILRLCFCRSKELREKFVRAETFLFKIRFNMLTSTDQTKFVQSLDLPLLQFISNEEKAELSHQLYQTVSASLQFQLNLNEEHQRKQYFQQEKFIKLPFENVIELVGNRLVFLKDGYAYLPQFQQLNLLSNEFASKLNQELIKTYQYLPRLNEDDRLLPILNHLSSGYTIADFNQQKANQFSENVDDEINAQSVWSEEISSNYPLCIKNLMEGLKKNHHLRYYGRQQLSLFLKGIGLSADEALKFWSEAFTRNGNMTMEKFNKEYRYSFRHNYGLEGNRINYKPWDCHTILSKPRPGRGDYHGCPFRDWSHERLSAELRSMKLTQAQIISVLDSCQKGEYTIACTKVFEMTHNSASADLEIGEQTHIAHPNLYFERSRQLQKKQQKLEKEKLFNNGNH,failed
10,MFRTALRNVFAHKARLLMTVLAVMLGVAFVSGTLVFADTLSNAFRNQSAKSYQDVAVAVTSYADSDNPKDEYALSDEVLDRISAVDGVAGVYGRVEGFAGVADPDGKLIGVGWSNKGSNFAPGKDGKDAAYTFTDGSGPVKDDQIALDEDSAGKGEYQVGDRVRVATNGPVKEYTLSGVFTTEDGAVNAGGSLVLFDTAVAQKQYLRPGYFESATVAAAPGADDARILKAVEPLLPDTAEAQTGRALADEQADQIEQGMGNLKQVLLGFAGIALFVGIFLISNTFTMLVAQRTKEIALMRAVGASRRQITRSVLAEAALVGLVASAVGFALGVGLAVGLRSGMAAFDMKMPAGPLVLSATPVVAAFAVGVLITVFAAWLPGRRAAKIPPVAAMNS,failed
11,MFRVLHLADLHLGYRPDLPAPVREEVYRARNRVLQAAVDLALDPRQGISLVLIAGDLFDNHRPEASLVEETIRQLTRLEAAGIQVITVPGNHDEITYNDAVYRREAGRWPGLLVTDPMPAKVATLKVKGDTCHLMAMAYTGGVTRVDGPLKAFPPAEGEGVNLAVFHGSLDWDGGERSLPLDGEALAAAGYDYIALGHIHRGGQRRLGRGLAVYAGMVAGKGFADPGTGSWTIVTLGDGPARVEQVPARVTPWRLVDLDVTAFQEPEELETAVRDALDPGALMQVRLTGSLAFDLDLEGLQARLGHPCPYLELVNETAGWTPEILESIAAEPTIRGLFVRRLQEKLAGSAGPGEAEVIRRAIFRGLLALKGGSR,failed
12,MFSAKKLSPADKLKNISSMLEEIVEDTTVPRNIRAAADNAKNALHNEEQELIVRSATAIQYLDDISEDPNMPIHTRTQIWGIVSELETIK,not failed
13,MFSFPAVLEAGIVFLYIAVALFLATLGIWIARTFLMPNVIKEDWNSLNRISFTTVIPLSASVMNAAIIAYYGFNVHYEYLYLVNYFIDFTSILFLSFFLGYKLYTKSPVHTNEISYGLLIPPVAISSNVLLGSSLMRTQYFNSIIFLTVIGVGIALFLFLFIGIMTFASYIRDQKANAPSPMLVLPVGVSSIIVINILAIATAKSVFQIPMADALTVSFMLWAFELWNFVVAMMISLKRVFREPATISIWAYTFPMAIFSVSSLDLRSIIGRYGYITASNIVYYIGIGAWVILIVAWVYAVMSTAIFLSHIKMIAYPG,failed
14,MFSGKRLKKRRITLGYSQSELADKLHINRSSYFNWENEKTKPNQSNLKQLAILLDVPETYFESEYKIVNTYLQLSLQNQEKVEKYAEELLQTQKVHEKIVPLFAVEVLSEIQLSAGPGEGLYDEFETETVYSEDEYTGFDIATWISGNSMEPVYKDGEVALIRSTGFDHDGAVYALNWNGSLYIKKLYREEDGFRMVSINPDVAERFIPFEDEIRIVGKIVGHFMPVIGGLEHHHHHH,not failed
15,MFSLSFPSSSSALLPSLVAFDSSRRLSLQPKKLNRLQSHLFSPQHLSFSQSNVSRYRAFCVSSSSPPEGTVSVVDFHEKDWSFLESMEIDSTEHTQKIERIIKAGELSESSRVLVSISSETFVDRLVESSPSQLLLIVHDSLFTLACIKEKYDKVKCWQGEMIYVPEKWSPLDAVFLYFLPALPFDLDELFKTLSQRCSSGARVVISHPQGRLGLEQQRKEFSDVVVSDLPDESTLSNVAEKHSFELTQFVDEQGLYLAVLKSSKQ,failed
16,MFSNVNKTTSAEAGKSAFWAMSIFLLLLSIMLLVLGLYYQIVLHHTPAPLLLGIAAGFGLGTPLEIWNFSDPDTLMRVMAFQDRFLIVCFGFSIGLGAILLYLFAAIPGVSPHYGIKDFFVFGVVVGGLLFGVGVGLAGYFPGTIWIALGQGRRDAIYAVFGGLLGALTWSLIFGAARGFFWNTFNYGPITWYSIFGIKSHLEIFGTSLIFGAILLGMFLFLPRYPKQPVKESCGFHLAGKNNKVLTFDDMIDDENKKYPDQNQYLIRLTNESSIRNARSIIVLGIAFTVIAVAVILLRQIFGESTTYSWIGAQLFYAVNPQYAASNPYWNLFGGMHIVNGKPIDLPFSEIGWEPFSDLGTFLGGLISSIFISKRFMKFKKRVPLVWEHRFGPSDKKRFVGSFFGAFLVLFGARMANGCASGHVLSGNIQMAISSFVFLMAVLIGSWLTLYFVMGLKLNSRGYRN,failed
17,MFSPEGPTRRELAVQALSSVERGYDLLAPKFDHTPYRTPDRVLDAVARGLEPLGPFAAGLDLCCGTGAGVEVLARVCQRDVTGVDFSAGMLEVARRRTLPPGPEVSWVRADARALPFGPAFDLVVSFGAFGHFLPRELPGLFGQVRSVLRPDGCFAFPVAAPPRPGSPGYWTLLGFDAAMRVRNALWRPPFVMYYRTFRLGAVGRELSRAGFRTDLHALPEFGRRPDGSPRARLVVARRLP,failed
18,MFSQTIFFGMKQSARGVSVAFSTLQEASMHKRVLIQAASALLALQFMAVPVFAAGSSGGGSDQTVTQCKKGEVWDKKKKKCVAPQEGMLDDDSIYDAGHALAMAGRYDEAISVLTLAANKQDPRILNYLGYSHRHSGRVTVGLGYYEEALRIDPNYTLVREYLGEAHLQIGDLAGAQQQLMEIEKRTGKGSREYGMLSEQIDHFMRS,failed
